# Source: patent publication US10829528B2, “Therapeutic agents for neurological and psychiatric disorders” (VIB VZW, priority 2016, dated 2020)
# B1: sAPPα: soluble amyloid precursor protein α ectodomain; mouse APP695 18-612aa, Fc tag cleaved (protein)
# chain: LEVPTDGNAGLLAEPQIAMFCGKLNMHMNVQNGKWESDPSGTKTCIGTKEGILQYCQEVYPELQITNVVEANQPVTIQNWCKRGRKQCKTHTHIVIPYRCLVGEFVSDALLVPDKCKFLHQERMDVCETHLHWHTVAKETCSEKSTNLHDYGMLLPCGIDKFRGVEFVCCPLAEESDSVDSADAEEDDSDVWWGGADTDYADGGEDKVVEVAEEEEVADVEEEEADDDEDVEDGDEVEEEAEEPYEEATERTTSTATTTTTTTESVEEVVRVPTTAASTPDAVDKYLETPGDENEHAHFQKAKERLEAKHRERMSQVMREWEEAERQAKNLPKADKKAVIQHFQEKVESLEQEAANERQQLVETHMARVEAMLNDRRRLALENYITALQAVPPRPHHVFNMLKKYVRAEQKDRQHTLKHFEHVRMVDPKKAAQIRSQVMTHLRVIYERMNQSLSLLYNVPAVAEEIQDEVDELLQKEQNYSDDVLANMISEPRISYGNDALMPSLTETKTTVELLPVNGEFSLDDLQPWHPFGVDSVPANTENEVEPVDARPAADRGLTTRPGSGLTNIKTEEISEVKMDAEFGHDSGFEVRHQK
# Legend:
# [1] = test system: App/Aplp1 dKO primary hippocampal neurons; experiment: mEPSCs & mIPSCs in App/Aplp1 dKO primary hippocampal cultures; type: cell-based, mouse
# Description: mEPSCs & mIPSCs are measured in cultured primary hippocampal neurons at baseline and following acute application of agonists. Excitatory terminals selectively express the sushi domain-containing GABABR1a isoform (ref18), where it functions to inhibit neurotransmitter release (ref 24). Acute exposure of primary hippocampal neurons from wild type mice to 30μM baclofen, a GABABR agonist, or 250 nM sAPPα (Fc cleaved) reduces the frequency of miniature excitatory postsynaptic currents (mEPSCs) by 68% (FIG. 8 a,b) and 39% (FIG. 8 c,d), respectively, with no effect on mEPSC amplitude (FIG. 8e). […]
# Single neurons from wild type or APP/APLP1 null mutant embryos (E18) were recorded within the large neuronal network at DIV 12-15. […] Spontaneous events were detected using Mini Analysis program (Synaptosoft). mEPSCs and mIPSCs were separated on the basis of their distinct decay kinetics, using a threshold of 5 ms47. Baseline was determined from an average of 60 sec of recordings prior to protein or drug treatment. Effect of treatment was determined from an average of 30 sec recordings after 140 sec of protein or drug treatment.
# [2] = test system: cultured hippocampal neurons; experiment: FM1-43 dye labeling of presynaptic vesicle recycling; type: cell-based, mouse
# Description: We assessed the effect of sAPPα on synaptic vesicle recycling (ref6) using the activity-dependent dye FM1-43. We measured density (D) and intensity (ΔF) of FM1-43 uptake in presynaptic vesicles turned over by stimulation of 30 action potentials (APs) at a rate of 1 Hz in cultured hippocampal neurons.
# The experiments were performed in mature (15-28 days in vitro) cultures. Hippocampal neurons were imaged using a FV1000 spectral Olympus confocal microscope using a 60×1.2 NA water immersion objective. The experiments were conducted at room temperature in extracellular Tyrode solution containing (in mM): NaCl, 145; KCl, 3; glucose, 15; HEPES, 10; MgCl2, 1.2; CaCl2), 1.2; pH adjusted to 7.4 with NaOH. For FM-based imaging and analysis, activity-dependent FM1-43 (10 μM) styryl dye was used to estimate basal synaptic vesicle recycling using previously described protocol48. Briefly, action potentials were elicited by passing 50 mA constant current for 1 ms through two platinum wires, separated by ˜7 mm and close to the surface of the coverslip. The extracellular medium contained non-selective blocker of glutamate receptors (0.5 mM kynurenic acid) to block recurrent neuronal activity. 30 stimuli at 1 Hz were applied during FM1-43 loading, while 800 stimuli at 2 Hz during unloading. The fluorescence of individual synapses was determined from the difference between images obtained after staining and after destining (ΔF). Detection of signals was done using custom-written scripts in MATLAB (Mathworks) as described before48.
# [3] = target: T1, sushi1 domain of GABABR1a (Homo sapiens, UniProt Q9UBS5); experiment: BioLayer Interferometry binding of sAPPα to sushi domains
# T1 construct: made in house
# Description: We first determined which GABAB subunit and isoform sAPPα bound. The GABABR is comprised of two subunits, the GABABR1 and the GABABR2 subunit. GABABR1 is present as two main isoforms (1a and 1b), with the only difference between these isoforms being the presence of two protein-binding sushi repeats in the ectodomain of GABABR1a (FIG. 1A-B). […] The sequence of the Sushi domain 1 is […].
# T1 sequence (Q9UBS5 26-97): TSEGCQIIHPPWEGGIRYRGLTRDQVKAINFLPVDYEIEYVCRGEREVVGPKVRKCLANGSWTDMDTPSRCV
molecule,measurement,setting,value
B1,effect on mEPSC frequency,[1],reduces
same,effect on mIPSC frequency,[1],reduces
same,reduction of total presynaptic strength (S=ΔF×D),"[2]; 1 μM, 15 min after addition, 30 APs at 1 Hz",57%
same,effect on presynaptic vesicle recycling (in words),"[2]; FM1-43, sAPPαΔExD at 1 μM",dose dependent manner
same,binding of sAPPα to Sushi 1 domain by BioLayer Interferometry,[3],direct binding
